Measurements reported in the supplement of paper PMC7877785.
± gives the uncertainty stated by the source.

Assay: self-splicing fitness, log relative to wild type (ln ratio); higher = more splicing; Tetrahymena group I intron in knt gene, E. coli kanamycin selection, DiMSum; sequences stand for … in CUCUCU…GGAGGGAAAAGUUAUCAGGCAUGCACCUGGUAGCUAGUCUUUAAACCAAUAGAUUGCAUCGGUUUAAAAGGCAAGACCGUCAAAUUGCGGGAAAGGGGUCAACAGCCGUUCAGUACCAAGUCUCAGGGGAAACUUUGAGAUGGCCUUGCAAAGGGUAUGGUAAUAAGCUGACGGACAUGGUCCUAACCACGCAGCCAAGUCCUAAGUCAACAGAUCUUCUGUUGAUAUGGAUGCAGUUCACAGACUAAAUGUCGGUCGGGGAAGAUGUAUUCUUCUCAUAAGAUAUAGUCGGACCUCUCCUUAAUGGGAGCUAGCGGAUGAAGUGAUGCAACACUGGAGCCGCUGGGAACUAAUUUGUAUGCGAAAGUAUAUUGAUUAGUUUUGGAGUACUCGUGGUCG
In short: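 Six replicate transformations of E. coli BL21(DE3) with a pET-22b(+) library were grown overnight at 37°C or 30°C. The library randomised all eight P1ex-region intron nucleotides, the intron lying in the knt kanamycin-resistance gene, and plates were LB agar with or without 25 μg/mL kanamycin plus 100 μg/mL carbenicillin, 50 μM IPTG and 0.2% rhamnose. Pooled colonies were amplicon-sequenced on an Illumina HiSeq 2500, and fitness is the DiMSum error-weighted combination of wild-type-normalised replicate fold changes, kanamycin versus none.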

Sequence	self-splicing fitness (ln) (30 °C)	self-splicing fitness (ln) (37 °C)
UGACAGCAAUAUUACGGGCA	-0.0919 ± 0.079	0.689 ± 0.093
UGACAGCAAUAUUACGGGCG	-0.223 ± 0.1	0.3 ± 0.11
UGACAGCAAUAUUACGGGUG	-0.383 ± 0.052	-0.732 ± 0.074
UGACAGCAAUAUUACGGUAC	-4.6 ± 0.36	-2.85 ± 0.38
UGACAGCAAUAUUACGGUCU	-1.58 ± 0.065	-0.946 ± 0.072
UGACAGCAAUAUUACGUACA	-0.21 ± 0.087	0.281 ± 0.12
UGACAGCAAUAUUACGUACU	-0.423 ± 0.064	0.165 ± 0.085
UGACAGCAAUAUUACGUAGC	-4.08 ± 0.29	-2.28 ± 0.28
UGACAGCAAUAUUACGUCAA	-2.37 ± 0.18	-0.896 ± 0.11
UGACAGCAAUAUUACGUCCA	-0.629 ± 0.061	0.245 ± 0.1
UGAGAGCAAUAUUACGACUU	-3.87 ± 0.22	-2.31 ± 0.18
UGAGAGCAAUAUUACGAGUC	–	-3.22 ± 0.47
UGAGAGCAAUAUUACGCAUA	-3.24 ± 0.44	–
UGAGAGCAAUAUUACGCCGA	-1.96 ± 0.36	–
UGAGAGCAAUAUUACGCGAG	-3.56 ± 0.37	-2.34 ± 0.22
UGAGAGCAAUAUUACGCGCC	-1.44 ± 0.33	-1.09 ± 0.47
UGAGAGCAAUAUUACGCGUA	-2.26 ± 0.26	-2.4 ± 0.31
UGAGAGCAAUAUUACGGAAA	–	-1.92 ± 0.39
UGAGAGCAAUAUUACGGAAU	–	1.01 ± 0.35
UGAGAGCAAUAUUACGGAGC	-2.21 ± 0.18	-1.94 ± 0.19
UGAGAGCAAUAUUACGGCUA	-1.67 ± 0.25	-0.532 ± 0.35
UGAGAGCAAUAUUACGGGGC	-2.38 ± 0.39	-2.17 ± 0.46
UGAGAGCAAUAUUACGGGUC	–	-1.33 ± 0.45
UGAGAGCAAUAUUACGGGUU	-2.45 ± 0.24	-2.85 ± 0.31
UGAGAGCAAUAUUACGGUCG	-1.56 ± 0.083	-0.464 ± 0.11

Sequence	self-splicing fitness (ln) (30 °C)	self-splicing fitness (ln) (37 °C)
UGAGAGCAAUAUUACGGUGA	-2.54 ± 0.36	-2.73 ± 0.44
UGAGAGCAAUAUUACGGUGU	-2.98 ± 0.24	-2.36 ± 0.29
UGAGAGCAAUAUUACGUAAG	-3.27 ± 0.23	-1.67 ± 0.21
UGAGAGCAAUAUUACGUACC	-2.65 ± 0.36	–
UGAGAGCAAUAUUACGUCCU	-3.05 ± 0.24	-2.57 ± 0.49
UGAGAGCAAUAUUACGUGAG	-2.43 ± 0.14	-1.83 ± 0.2
UGAGAGCAAUAUUACGUGGU	-2.67 ± 0.14	-2.61 ± 0.2
UGAGAGCAAUAUUACGUGUA	-2.07 ± 0.13	–
UGAGAGCAAUAUUACGUGUU	-3.49 ± 0.25	-1.36 ± 0.14
UGAUAGCAAUAUUACGAAAG	-3 ± 0.14	-1.67 ± 0.15
UGAUAGCAAUAUUACGAAGU	-3.67 ± 0.25	-3.22 ± 0.26
UGAUAGCAAUAUUACGAAUA	-3.62 ± 0.47	-0.595 ± 0.2
UGAUAGCAAUAUUACGACUU	-0.653 ± 0.17	-0.431 ± 0.12
UGAUAGCAAUAUUACGAUUU	-1.76 ± 0.1	-1.13 ± 0.12
UGAUAGCAAUAUUACGCACC	-1.02 ± 0.15	-0.277 ± 0.22
UGAUAGCAAUAUUACGCAGA	-3.31 ± 0.24	-1.38 ± 0.11
UGAUAGCAAUAUUACGCAGG	-3.38 ± 0.24	-2.27 ± 0.36
UGAUAGCAAUAUUACGCCAA	-3.37 ± 0.27	-1.85 ± 0.15
UGAUAGCAAUAUUACGCCAC	–	-0.614 ± 0.29
UGAUAGCAAUAUUACGCCCG	0.00499 ± 0.21	-0.455 ± 0.2
UGAUAGCAAUAUUACGCCUA	-0.439 ± 0.15	-0.227 ± 0.16
UGAUAGCAAUAUUACGCGGG	-3.28 ± 0.31	-1.7 ± 0.25
UGAUAGCAAUAUUACGCUAA	-1.82 ± 0.2	-0.0947 ± 0.25
UGAUAGCAAUAUUACGCUUC	–	-2.45 ± 0.35
UGAUAGCAAUAUUACGCUUG	-0.924 ± 0.091	0.0889 ± 0.14

Sequence	self-splicing fitness (ln) (30 °C)	self-splicing fitness (ln) (37 °C)
UGAUAGCAAUAUUACGGAGA	-2.83 ± 0.33	-1.68 ± 0.42
UGAUAGCAAUAUUACGGAUG	-1.33 ± 0.1	-0.978 ± 0.12
UGAUAGCAAUAUUACGGCAG	0.188 ± 0.17	0.0746 ± 0.18
UGAUAGCAAUAUUACGGCCA	-0.243 ± 0.14	0.424 ± 0.2
UGAUAGCAAUAUUACGGCUC	-2.21 ± 0.15	-1.29 ± 0.17
UGAUAGCAAUAUUACGGGAU	-2.03 ± 0.17	-2.15 ± 0.26
UGAUAGCAAUAUUACGGGUU	-3.88 ± 0.23	-1.98 ± 0.17
UGAUAGCAAUAUUACGGUAC	–	-2.12 ± 0.42
UGAUAGCAAUAUUACGUAAU	-4.31 ± 0.46	-1.99 ± 0.21
UGAUAGCAAUAUUACGUGUC	-3.92 ± 0.28	-2.49 ± 0.26
UGAUAGCAAUAUUACGUUAA	-2.02 ± 0.21	-2.15 ± 0.26
UGAUAGCAAUAUUACGUUAC	-3.01 ± 0.31	-1.08 ± 0.22
UGCAAGCAAUAUUACGAAAG	-2.6 ± 0.12	-1.53 ± 0.13
UGCAAGCAAUAUUACGAACA	-1.23 ± 0.094	0.193 ± 0.13
UGCAAGCAAUAUUACGAACU	-0.489 ± 0.14	0.0308 ± 0.12
UGCAAGCAAUAUUACGACAG	-0.739 ± 0.066	-0.13 ± 0.092
UGCAAGCAAUAUUACGACCC	-2.05 ± 0.49	0.223 ± 0.43
UGCAAGCAAUAUUACGAGCC	-1.39 ± 0.11	-1.52 ± 0.14
UGCAAGCAAUAUUACGAUCG	-0.2 ± 0.07	0.647 ± 0.093
UGCAAGCAAUAUUACGAUUU	-1.16 ± 0.09	-1.05 ± 0.1
UGCAAGCAAUAUUACGCAAG	-2.59 ± 0.17	-3.02 ± 0.32
UGCAAGCAAUAUUACGCACU	-2.92 ± 0.13	-1.28 ± 0.1
UGCAAGCAAUAUUACGCAUU	-4.37 ± 0.27	-3.61 ± 0.26
UGCAAGCAAUAUUACGCGGA	-2.23 ± 0.12	-0.795 ± 0.12
UGCAAGCAAUAUUACGCUUA	-1.2 ± 0.092	-0.639 ± 0.092

Sequence	self-splicing fitness (ln) (30 °C)	self-splicing fitness (ln) (37 °C)
UGCAAGCAAUAUUACGGAAA	-1.82 ± 0.17	-2.45 ± 0.22
UGCAAGCAAUAUUACGGCAU	-3.05 ± 0.29	-2.1 ± 0.19
UGCAAGCAAUAUUACGGCCG	-0.266 ± 0.075	0.134 ± 0.099
UGCAAGCAAUAUUACGGCGA	-0.0647 ± 0.094	-0.21 ± 0.11
UGCAAGCAAUAUUACGGGGA	-3.21 ± 0.33	-1.32 ± 0.15
UGCAAGCAAUAUUACGGGGU	-3.13 ± 0.15	-2.75 ± 0.14
UGCAAGCAAUAUUACGGGUA	-0.497 ± 0.084	0.0384 ± 0.095
UGCAAGCAAUAUUACGGUAC	-4.35 ± 0.39	-2.38 ± 0.21
UGCAAGCAAUAUUACGGUCA	0.0812 ± 0.064	-0.169 ± 0.065
UGCAAGCAAUAUUACGUAGA	-1.35 ± 0.072	-0.944 ± 0.1
UGCAAGCAAUAUUACGUCGC	-2.86 ± 0.43	-2.36 ± 0.49
UGCAAGCAAUAUUACGUCGG	-2.03 ± 0.086	-0.943 ± 0.1
UGCAAGCAAUAUUACGUCUG	-1.34 ± 0.08	-0.432 ± 0.1
UGCAAGCAAUAUUACGUGAU	-3.33 ± 0.082	-2.13 ± 0.093
UGCAAGCAAUAUUACGUGCG	-2.86 ± 0.18	-1.94 ± 0.18
UGCAAGCAAUAUUACGUGUG	-2.69 ± 0.098	-2.81 ± 0.14
UGCAAGCAAUAUUACGUUAC	-2.91 ± 0.27	-2.41 ± 0.24
UGCCAGCAAUAUUACGAAGG	-3.59 ± 0.27	-2.6 ± 0.3
UGCCAGCAAUAUUACGAUAC	-3.95 ± 0.25	-2.29 ± 0.25
UGCCAGCAAUAUUACGAUUU	-4.1 ± 0.23	-1.54 ± 0.14
UGCCAGCAAUAUUACGCCAU	-3.3 ± 0.28	-2.48 ± 0.26
UGCCAGCAAUAUUACGCCCC	-2.29 ± 0.26	-1.44 ± 0.29
UGCCAGCAAUAUUACGCCUU	-1.93 ± 0.13	-2.29 ± 0.18
UGCCAGCAAUAUUACGGAAC	-3.49 ± 0.34	–
